This note sets out measurements from article PMC6698648, “A Fanci knockout mouse model reveals common and distinct functions for FANCI and FANCD2” (Nucleic Acids Research, 2019).

This assay deals with T1, Human RAD51 (human, UniProt Q06609 1-339).
T1 sequence (looked up): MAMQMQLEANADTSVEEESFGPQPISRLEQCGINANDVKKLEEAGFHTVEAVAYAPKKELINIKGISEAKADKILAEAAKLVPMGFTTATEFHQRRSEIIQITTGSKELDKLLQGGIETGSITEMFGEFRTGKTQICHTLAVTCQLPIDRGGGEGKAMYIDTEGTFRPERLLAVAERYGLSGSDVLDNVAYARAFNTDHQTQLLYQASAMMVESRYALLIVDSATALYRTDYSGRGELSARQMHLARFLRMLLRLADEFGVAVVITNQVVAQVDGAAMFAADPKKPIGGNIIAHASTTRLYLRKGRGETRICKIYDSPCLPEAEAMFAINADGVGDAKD
Put plainly: cell-based or functional assay.

B1: FANCI (natural protein, UniProt Q9NVI1 1-1328, looked up)
chain: MDQKILSLAAEKTADKLQEFLQTLREGDLTNLLQNQAVKGKVAGALLRAIFKGSPCSEEAGTLRRRKIYTCCIQLVESGDLQKEIASEIIGLLMLEAHHFPGPLLVELANEFISAVREGSLVNGKSLELLPIILTALATKKENLAYGKGVLSGEECKKQLINTLCSGRWDQQYVIQLTSMFKDVPLTAEEVEFVVEKALSMFSKMNLQEIPPLVYQLLVLSSKGSRKSVLEGIIAFFSALDKQHNEEQSGDELLDVVTVPSGELRHVEGTIILHIVFAIKLDYELGRELVKHLKVGQQGDSNNNLSPFSIALLLSVTRIQRFQDQVLDLLKTSVVKSFKDLQLLQGSKFLQNLVPHRSYVSTMILEVVKNSVHSWDHVTQGLVELGFILMDSYGPKKVLDGKTIETSPSLSRMPNQHACKLGANILLETFKIHEMIRQEILEQVLNRVVTRASSPISHFLDLLSNIVMYAPLVLQSCSSKVTEAFDYLSFLPLQTVQRLLKAVQPLLKVSMSMRDCLILVLRKAMFANQLDARKSAVAGFLLLLKNFKVLGSLSSSQCSQSLSVSQVHVDVHSHYNSVANETFCLEIMDSLRRCLSQQADVRLMLYEGFYDVLRRNSQLANSVMQTLLSQLKQFYEPKPDLLPPLKLEACILTQGDKISLQEPLDYLLCCIQHCLAWYKNTVIPLQQGEEEEEEEEAFYEDLDDILESITNRMIKSELEDFELDKSADFSQSTSIGIKNNICAFLVMGVCEVLIEYNFSISSFSKNRFEDILSLFMCYKKLSDILNEKAGKAKTKMANKTSDSLLSMKFVSSLLTALFRDSIQSHQESLSVLRSSNEFMRYAVNVALQKVQQLKETGHVSGPDGQNPEKIFQNLCDITRVLLWRYTSIPTSVEESGKKEKGKSISLLCLEGLQKIFSAVQQFYQPKIQQFLRALDVTDKEGEEREDADVSVTQRTAFQIRQFQRSLLNLLSSQEEDFNSKEALLLVTVLTSLSKLLEPSSPQFVQMLSWTSKICKENSREDALFCKSLMNLLFSLHVSYKSPVILLRDLSQDIHGHLGDIDQDVEVEKTNHFAIVNLRTAAPTVCLLVLSQAEKVLEEVDWLITKLKGQVSQETLSEEASSQATLPNQPVEKAIIMQLGTLLTFFHELVQTALPSGSCVDTLLKDLCKMYTTLTALVRYYLQVCQSSGGIPKNMEKLVKLSGSHLTPLCYSFISYVQNKSKSLNYTGEKKEKPAAVATAMARVLRETKPIPNLIFAIEQYEKFLIHLSKKSKVNLMQHMKLSTSRDFKIKGNILDMVLREDGEDENEEGTASEHGGQNKEPAKKKRKK
Take B1: the “RAD51-mediated D-loop formation, RAD51 at 400 nM with added FANCI (up to 100 nM), fold activation relative to RAD51 alone” value was 8 fold.
